Reference: publication PMC314469, “Protein Interaction Networks by Proteome Peptide Scanning” (PLoS Biology, 2004)

T1: Yhr016c SH3 (YSC84_YEAST), P32793
T1 chain: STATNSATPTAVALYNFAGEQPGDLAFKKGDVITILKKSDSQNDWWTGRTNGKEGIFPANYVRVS

T2: Rvs167 SH3 (RV167_YEAST), P39743
T2 chain: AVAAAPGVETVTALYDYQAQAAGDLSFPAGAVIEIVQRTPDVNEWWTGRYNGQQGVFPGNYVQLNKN

T3: Boi2 SH3 (BOI2_YEAST), P39969
T3 chain: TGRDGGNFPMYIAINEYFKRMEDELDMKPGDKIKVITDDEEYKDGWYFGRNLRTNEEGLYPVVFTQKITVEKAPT

T4: Boi1 SH3 (BOI1_YEAST), P38041
T4 chain: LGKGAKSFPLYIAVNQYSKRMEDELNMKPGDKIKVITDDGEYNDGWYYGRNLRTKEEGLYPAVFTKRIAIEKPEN

T5: Yfr024 SH3 (LSB3_YEAST), P43603
T5 chain: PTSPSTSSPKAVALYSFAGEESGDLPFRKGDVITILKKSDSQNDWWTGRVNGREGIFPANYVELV


How the values were obtained:
Experiment in all cases: SPOT array
[1] = target: T1, Yhr016c SH3 (YSC84_YEAST), P32793
[2] = target: T2, Rvs167 SH3 (RV167_YEAST), P39743
[3] = target: T3, Boi2 SH3 (BOI2_YEAST), P39969
[4] = target: T4, Boi1 SH3 (BOI1_YEAST), P38041
[5] = target: T5, Yfr024 SH3 (LSB3_YEAST), P43603

| Binder | normalised SPOT signal, Boehringer light units (BLU); mean over the file's lines of this peptide [1] | normalised SPOT signal, Boehringer light units (BLU); mean over the file's lines of this peptide [2] | normalised SPOT signal, Boehringer light units (BLU); mean over the file's lines of this peptide [3] | normalised SPOT signal, Boehringer light units (BLU); mean over the file's lines of this peptide [4] | normalised SPOT signal, Boehringer light units (BLU); mean over the file's lines of this peptide [5] |
| --- | --- | --- | --- | --- | --- |
| RAVPILPPRNNVEP [YBR108W 543-556] | 33600 | 59500 | 77 | 49.7 | 38300 |
| RSSPWSPSRSHGAV [YLR169W 91-104] | 1090 | 117 | 92.9 | 147 | 2360 |
| RDKPSEPERTKDGS [YJL184W 49-62] | 120 | 24.1 | 27.8 | 74.9 | 112 |
| REEPPLPKRIRISK [YKL214C 57-70] | 50200 | 11800 | 65.9 | 2310 | 49100 |
| RFDPKSPTKRSIAI [YMR129W 524-537] | 71.9 | 40 | 62 | 129 | 321 |
| RFNPAIPLRIYLKT [YLR073C 15-28] | 846 | 116 | 38.4 | 66.6 | 3040 |
| RGIPARPSKDDVMK [YPL073C 83-96] | 880 | 1080 | 14.7 | 55 | 7220 |
| RGPPPLPPRANVQP [YLR144C 22-35] | 33400 | 18300 | 14.3 | 3000 | 25900 |
| RGTPANPGRVATLI [YER163C 47-60] | 199 | 48.8 | 0 | 147 | 146 |
| RHRPQKPVRTVIYT [YOL164W 148-161] | 90.2 | 48.3 | 62.7 | 101 | 3300 |
| RIPPTVPSKIIDVV [YGR198W 7-20] | 158 | 44.9 | 22.2 | 43.1 | 618 |
| RIVPAIPKKATVDE [YNL064C 356-369] | 3320 | 10900 | 27.5 | 92.7 | 13100 |
| RKRPAPPKKKAPST [YFR013W 82-95] | 45.5 | 59.3 | 39.9 | 192 | 840 |
| RLIPTSPQKTNINT [YGR146C 14-27] | 197 | 73.9 | 30.1 | 52.5 | 547 |
| RLLPSWPKRGFSLL [YIL047C 210-223] | 1130 | 719 | 251 | 69.4 | 10700 |
| RMIPELPPKRIGSQ [YMR004W 190-203] | 19200 | 4880 | 201 | 366 | 34800 |
| RNEPVIPTKPSSSQ [YNL139C 1279-1292] | 115 | 4.9 | 17 | 61.2 | 511 |
| RNEPVKPFRNIDLK [YHR037W 29-42] | 838 | 39 | 47.3 | 146 | 6040 |
| RPLPQLPNRNNRPV [YOR181W 311-324] | 9140 | 25200 | 33.8 | 6170 | 19600 |
| RPNPTQPRKPLDSK [YDR359C 776-789] | 104 | 162 | 61.7 | 210 | 271 |
| RPPPLTPEKNLYLT [YER032W 258-271] | 0 | 50.7 | 75.9 | 64.5 | 381 |
| RPSPWLPSKPNSYH [YDR151C 80-93] | 578 | 140 | 37.2 | 102 | 6260 |
